Test results taken from FireProtDB (doi:10.1021/bi801431x).
Where “and” joins values, the source holds several entries; their conditions need not be identical. Identical values can stand only once.

B1: Aspartate aminotransferase, P00509 (parent)
chain: MFENITAAPADPILGLADLFRADERPGKINLGIGVYKDETGKTPVLTSVKKAEQYLLENETTKNYLGIDGIPEFGRCTQELLFGKGSALINDKRARTAQTPGGTGALRVAADFLAKNTSVKRVWVSNPSWPNHKSVFNSAGLEVREYAYYDAENHTLDFDALINSLNEAQAGDVVLFHGCCHNPTGIDPTLEQWQTLAQLSVEKGWLPLFDFAYQGFARGLEEDAEGLRAFAAMHKELIVASSYSKNFGLYNERVGACTLVAADSETVDRAFSQMKAAIRANYSNPPAHGASVVATILSNDALRAIWEQELTDMRQRIQRMRQLFVNTLQEKGANRDFSFIIKQNGMFSFSGLTKEQVLRLREEFGVYAVASGRVNVAGMTPDNMAPLCEAIVAVL

Variants of: B1
Conditions: Escherichia coli (strain K12); pH 7.5; 25 °C; Urea; Fluorescence; Potassium phosphate 20 mM; reversible: Yes; structure 1AMQ; whole UniProt chain shown

Row | Variant | ddG of mutation (higher = less stable) | denaturant midpoint (higher = more stable)
1 | N282D | -0.8 kcal/mol | 4.15 M and 4.9 M and 5.13 M
2 | N282R | 2.6 kcal/mol | 3.3 M and 5.17 M
3 | R254K | 7.6 kcal/mol and 5 kcal/mol | –
4 | R254M | 3.8 kcal/mol and 3.4 kcal/mol | 3.06 M and 3.12 M and 5.19 M
5 | N285R | 4.4 kcal/mol and 5.9 kcal/mol | 2.91 M and 2.66 M and 4.24 M
6 | K63E E253K | 6.7 kcal/mol and 6.5 kcal/mol | –
7 | T6A | 1.3 kcal/mol | 3.62 M and 4.77 M
8 | E3A | 3.8 kcal/mol and 3 kcal/mol | –
9 | F2A | 7.3 kcal/mol and 7.4 kcal/mol | 2.28 M and 4.26 M and 5.09 M
10 | I5A | 4.9 kcal/mol and 5.1 kcal/mol | 2.81 M and 2.74 M and 5.2 M
11 | D11A | 5.9 kcal/mol and 5.1 kcal/mol | –
12 | E253Q | 6.3 kcal/mol and 5.4 kcal/mol | –
13 | E253K | 7.6 kcal/mol and 7.1 kcal/mol | –
14 | K63M E253Q | 5.3 kcal/mol and 4.6 kcal/mol | –
15 | K63M | 5.4 kcal/mol and 4.7 kcal/mol | 2.71 M and 2.81 M and 4.29 M
16 | K63E | 4.5 kcal/mol | 2.93 M and 3.9 M and 5.01 M
